Data set [1] deals with neutrophil gelatinase-associated lipocalin (NGAL). Briefly: Serum NGAL by ELISA (kidney injury biomarker). Type of data set: in vivo, mice. On the procedure: (§1) MTD was defined as the highest dose given to the animals allowing 100% survival with no significant weight loss >15% throughout the experiment. Nontumor-bearing mice were randomly divided into seven cohorts used to evaluate MTD, six treatments and one control (n = 8/cohort); see Table 1. […] Control mice received DOTATATE (4 × 0.3 nmol) on four consecutive days. The animals were followed for 90 days. Serum was analyzed for the biomarker neutrophil gelatinase-associated lipocalin (NGAL) using ELISA (R&D Systems, 450 nm).

The next data set has as its system nontumor-bearing mice. Type of data set: in vivo. Conditions: for median survival / MTD: nontumor-bearing mice; for survival rate at 90 days post-treatment: n=8; for MTD: 90 days, n=8/cohort. On the procedure:
as §1

The nature of a further data set: in vivo. Conditions: male, athymic nu/nu, mouse, iv, 0.3 nmol, total radioactivity.

SMILES strings stand for the structures. Read-outs that look alike come from different tables or passages of the source. Some results are limits rather than exact numbers.

Experimental findings from publication PMC5118228 (EJNMMI Research, 2016) are described below.

What is called tissue uptake is the share of the injected amount in each gram of the tissue.

Consider `C[C@@H](O)[C@H](NC(=O)[C@@H]1CSSC[C@H](NC(=O)[C@@H](Cc2ccccc2)NC(=O)CN2CCN(CC(=O)O)CCN(CC(=O)O)CCN(CC(=O)O)CC2)C(=O)N[C@@H](Cc2ccc(O)cc2)C(=O)N[C@H](Cc2c[nH]c3ccccc23)C(=O)N[C@@H](CCCCN)C(=O)N[C@@H]([C@@H](C)O)C(=O)N1)C(=O)O` [^213Bi-DOTATATE, metal not drawn], for which the NGAL level in data set [1] (high-dose(−), 28.7 ± 1.2 MBq, without L-lysine, serum ELISA) turned out to be 15.8 ± 3.5 ng/mL. Also, the “nephrotoxicity (NGAL)” value in data set [1] (low-dose(−) and low-dose(+) cohorts) is on record as “No nephrotoxicity”. For the same molecule, the median survival in the data set on nontumor-bearing mice (all treated cohorts except the high-dose without L-lysine) is reported as above 90 days; in the data set on nontumor-bearing mice (high-dose without L-lysine, 28.7 ± 1.2 MBq) it was 24 days. The “survival rate at 90 days post-treatment” value is reported as 75% in the data set on nontumor-bearing mice (high-dose(+), 28.3 ± 0.8 MBq, with L-lysine); 0% in the data set with nontumor-bearing mice (high-dose(−), 28.7 ± 1.2 MBq, without L-lysine); 100% in the data set on nontumor-bearing mice (low-dose(+), 13.2 ± 0.9 MBq, with L-lysine); 87.5% in the data set with nontumor-bearing mice (low-dose(−), 13.0 ± 1.6 MBq, without L-lysine); 100% with nontumor-bearing mice (medium-dose(+), 21.7 ± 1.9 MBq, with L-lysine); 62.5% in the data set with nontumor-bearing mice (medium-dose(−), 20.7 ± 0.8 MBq, without L-lysine). The MTD in the data set on nontumor-bearing mice (in absence of L-lysine) was below 13.0 ± 1.6 MBq; in the data set on nontumor-bearing mice (with L-lysine renal protection (35 mg i.p.)) it was 21.7 ± 1.9 MBq. Besides, the tissue uptake at 1 h in the data set “in vivo” (Renal activity) was determined as 17.4 ± 2.2 %ID/g; in the data set “in vivo” (Tumor uptake) it was 6.5 ± 2.3 %ID/g. In addition, in the data set “in vivo” (Tumor uptake), the tissue uptake at 10 min was 5.3 ± 2.8 %ID/g.
